# US20050042720A1, “Novel promiscuous G alpha protein mutants and their use” (7TM Pharma A/S, priority 2003, published 2005)
# Legend:
# Assay type in all cases: cell-based
# [1] = tested on: chemokine CXCR1 and dopamine D2 receptor; assay: Calcium mobilization assay in COS7 cells cotransfected with receptor and Gα16 constructs; conditions: CXCR1 (interleukin 8) and D2 ((−)quinpirole) receptors, FIG. 13
# Procedure: 24 h after transfection, COS7 cells were split into 96 well plates at a density of ˜30,000 cells per well. 18-24 h later cells were loaded with a calcium sensitive dye (calcium assay kit from Molecular devices) for 1 h (37 C, 5% CO2) and then for 1 h at room temperature. Ligands were transferred to the cell plate from the sample plate using the Novostar's integrated pipette. To obtain the specific fluorescence response, baseline fluorescence counts before addition of ligands were subtracted from the peak of the calcium response Specific responses were used to plot the concentration response curve.
# Murine Wild type Gα16 was cloned as described above. […] was prepared with the Stratagene quick change mutagenesis kit according to the manufacturers instructions. The correctness of all PCR-derived sequences was verified by sequencing in both directions.
# COS7 cells were grown and transfected as described above.
# 24 h after transfection, COS7 cells were split into 96 well plates at a density of […] cells per well. 18-24 h later cells were loaded with a calcium sensitive dye (calcium assay kit from Molecular devices) for 1 h (37 C, 5% CO2) and then for 1 h at room temperature. […] To obtain the specific fluorescence response, baseline fluorescence counts before addition of ligands were subtracted from the peak of the calcium response. […]
# phospholipase Cβ [2] = assay: PI-hydrolysis assay in COS7 cells cotransfected with receptor and mutant/chimeric Gαq subunits (Example 3)
# Source text: Murine wild type Gαq was cloned from mouse brain by RT-PCR and inserted into the BamHI-NslI-sites of pcDNA1.1. All wild type and mutant Gα subunits contained an internal hemagglutinin epitope tag DVPDYA (Wedegaertner et al., 1993) replacing Gαqwt residues 125-130. To create the C-terminally modified Gαqi5 subunit, in which the last five aa of wt Gαq were replaced with the corresponding Gαi sequence, a 175-bp BglII-NslI fragment was replaced, in a two piece ligation, with a synthetic DNA fragment, containing the desired codon changes. Gαqs5/z5 were prepared in an analogous fashion. GαqG66x mutants were prepared with the Stratagene quick change mutagenesis kit according to the manufacturer's instructions. To generate GαqG66Xi5/s5/z5(X=D,V,N,K), a 175 bp BglII-NsiI fragment was removed from GαqG66X and replaced with the corresponding BglII-NsiI fragment of Gαqi5 and Gαqs5/z5, respectively. The correctness of all PCR-derived sequences was verified by sequencing in both directions. […]
# (§1) 18-24 h after transfections cells were splitted into 35-mm dishes in culture medium supplemented with 3 μCi/ml [3H]myo-inositol (20 Ci/mmol; Amersham). […] Cells were then stimulated in the same buffer with the appropriate agonist ligands for 1 h (37° C.), and increases in intracellular inositolphosphate determined by anion exchange chromatography as described (Kostenis et al., 1997).
# phospholipase Cβ [3] = assay: Basal IP formation in COS7 cells transfected with Gα subunit alone (constitutive activity); conditions: no receptor, no ligand, FIG. 6
# Procedure: Basal IP3 formation was determined in COS7 cells transiently transfected with vector DNA, Gαqwt, GαqG66D and the constitutively active Gα15Q212L mutant as described in detail in the Examples. Data represent mean values±SEM of 4 independent experiments performed in duplicate.
# COS7 cells were grown in Dulbecco's modified Eagles medium supplemented with 10% (vol/vol) fetal calf serum, Penicillin-Streptomycin (10000 IU/ml-10000 μg/ml) and 2 mM L-Glutamin in a humidified 5% CO2 incubator. For transfections, 1×10^6 cells were seeded into 100-mm dishes. About 24 h later, cells were cotransfected with the indicated G protein and receptor constructs (1:1 ratio) by using the Fugene transfection reagent as per manufacturer's instructions.
# as §1, with “split” for “splitted”, “35 mm” for “35-mm”, “Ci/mmol:” for “Ci/mmol;”, “45 min” for “1 h”, “1997)” for “1997).”
# To test whether the mutant Gαq subunit differs from Gαq wt in its ability to signal to phospholipase Cβ, plasmids encoding the respective cDNAs were transiently transfected into COS7 cells and IP1 accumulation was measured.
molecule,measurement,setting,value
"Gα16G69D: Gα16 with glycine 69 to aspartate mutation in linker I; SEQ ID No 5 (protein, listed as Homo sapiens, (69)..(69) Xaa is selected from the group consisting of Asp, Val, Asn and Lys) MARSLTWRCCPWCLTEDEKAAARVDQEINRILLEQKKQDRGELKLLLLGPGESGKSTFIKQMRIIHGAXYSEEERKGFRPLVYQNIFVSMRAMIEAMERLQIPFSRPESKHHASLVMSQDPYKVTTFEKRYAAAMQWLWRDAGIRACYERRREFHLLDSAVYYLSHLERITEEGYVPTAQDVLRSRMPTTGINEYCFSVQKTNLRIVDVGGQKSERKKWIHCFENVIALIYLASLSEYDQCLEENNQENRMKESLALFGTILELPWFKSTSVILFLNKTDILEEKIPTSHLATYFPSFQGPKQDAEAAKRFILDMYTRMYTGCVDGPEGSKKGARSRRLFSHYTCATDTQNIRKVFKDVRDSVLARYLDEINLL",agonist-induced intracellular calcium mobilization,[1],significantly increased
"GαqG66Di5: Gαq combining G66D linker I mutation with C-terminal five amino acids of Gαi; SEQ ID No. 6 (protein, listed as Mus musculus, (66)..(66) Xaa is selected from the group consisting of Asp, Val, Asn and Lys) MTLESIMACCLSEEAKEARRINDEIERHVRRDKRDARRELKLLLLGTGESGKSTFIKQMRIIHGSXYSDEDKRGFTKLVYQNIFTAMQAMIRAMDTLKIPYKYEHNKAHAQLVREVDVEKVSAFENPYVDAIKSLWNDPGIQECYDRRREYQLSDSTKYYLNDLDRVADPSYLPTQQDVLRVRVPTTGIIEYPFDLQSVIFRMVDVGGQRSERRKWIHCFENVTSIMFLVALSEYDQVLVESDNENRMEESKALFRTIITYPWFQNSSVILFLNKKDLLEEKIMYSHLVDYFPEYDGPQRDAQAAREFILKMFVDLNPDSDKIIYSHFTCATDTENIRFVFAAVKDTILQLNLKDCGLF",agonist-induced IP3 / PLCβ activity,"phospholipase Cβ [2]; Gi/o coupled receptors CXCR2, CCR5, SSTR1, KOR, GPR7, HM74a, NPY4, M2, P2Y12, FIG. 11",robust IP3 increases exceeding those observed upon coexpression with the C-terminal or the G66D mutant alone
"GαqG66Ds5: Gαq combining G66D linker I mutation with C-terminal five amino acids of Gαs; SEQ ID No. 7 (protein, listed as Mus musculus, (66)..(66) Xaa is selected from the group consisting of Asp, Val, Asn and Lys) MTLESIMACCLSEEAKEARRINDEIERHVRRDKRDARRELKLLLLGTGESGKSTFIKQMRIIHGSXYSDEDKRGFTKLVYQNIFTAMQAMIRAMDTLKIPYKYEHNKAHAQLVREVDVEKVSAFENPYVDAIKSLWNDPGIQECYDRRREYQLSDSTKYYLNDLDRVADPSYLPTQQDVLRVRVPTTGIIEYPFDLQSVIFRMVDVGGQRSERRKWIHCFENVTSIMFLVALSEYDQVLVESDNENRMEESKALFRTIITYPWFQNSSVILFLNKKDLLEEKIMYSHLVDYFPEYDGPQRDAQAAREFILKMFVDLNPDSDKIIYSHFTCATDTENIRFVFAAVKDTILQLNLKQYELL",response (stimulation of PLCβ) versus individual mutants,"phospholipase Cβ [2]; coexpressed non-Gq-selective receptor, Gs-linked GLP1, GIP, DP, adrenergic β2 (FIG. 12)",robust response exceeding the response observed upon coexpression with the C-terminal or the GαwG66D mutant alone
"Gα16: Murine wild type Gα16 (protein, UniProt P30678 1-374, looked up) Guanine nucleotide-binding …: MARSLTWGCCPWCLTEEEKTAARIDQEINRILLEQKKQEREELKLLLLGPGESGKSTFIKQMRIIHGVGYSEEDRRAFRLLIYQNIFVSMQAMIDAMDRLQIPFSRPDSKQHASLVMTQDPYKVSTFEKPYAVAMQYLWRDAGIRACYERRREFHLLDSAVYYLSHLERISEDSYIPTAQDVLRSRMPTTGINEYCFSVKKTKLRIVDVGGQRSERRKWIHCFENVIALIYLASLSEYDQCLEENDQENRMEESLALFSTILELPWFKSTSVILFLNKTDILEDKIHTSHLATYFPSFQGPRRDAEAAKSFILDMYARVYASCAEPQDGGRKGSRARRFFAHFTCATDTQSVRSVFKDVRDSVLARYLDEINLL",agonist-induced intracellular calcium mobilization,[1],gain the ability to stimulate calcium mobilization
"Gα15Q212L: GTPase defective, constitutively active Gα15 mutant replacing Glutamine 212 by Leucine (protein, UniProt P30678 1-374, looked up, variant Q212L) Guanine nucleotide-binding …: MARSLTWGCCPWCLTEEEKTAARIDQEINRILLEQKKQEREELKLLLLGPGESGKSTFIKQMRIIHGVGYSEEDRRAFRLLIYQNIFVSMQAMIDAMDRLQIPFSRPDSKQHASLVMTQDPYKVSTFEKPYAVAMQYLWRDAGIRACYERRREFHLLDSAVYYLSHLERISEDSYIPTAQDVLRSRMPTTGINEYCFSVKKTKLRIVDVGGLRSERRKWIHCFENVIALIYLASLSEYDQCLEENDQENRMEESLALFSTILELPWFKSTSVILFLNKTDILEDKIHTSHLATYFPSFQGPRRDAEAAKSFILDMYARVYASCAEPQDGGRKGSRARRFFAHFTCATDTQSVRSVFKDVRDSVLARYLDEINLL",basal IP1 accumulation / ability to activate PLCβ (constitutive activity),phospholipase Cβ [3],robust IP1 increase
